Two variants from publication PMC6458997, “Deciphering the Molecular Mechanism Underpinning Phage Arbitrium Communication Systems” (Molecular Cell, 2019) can be followed below.

First the molecules themselves.
B1: unnamed (parent)
chain 1: MELIRIAMKKDLENDNSLMNKWATVAGLKNPNPLYDFLNHDGKTFNEFSSIVNIVKSQYPDREYELMKDYCLNLDVKTKAARSALEYADANMFFEIEDVLIDSMISCSNMKSKEYGKVYKIHRELSNSVITEFEAVKRLGKLNIKTPEMNSFSRLLLLYHYLSTGNFSPMAQLIKQIDLSEISENMYIRNTYQTRVHVLMSNIKLNENSLEECREYSKKALESTNILRFQVFSYLTIGNSLLFSNYELAQENFLKGLSISVQNENYNMIFQQALCFLNNVWRKENKWINFESDSIMDLQEQAHCFINFNENSKAKEVLDKLDLLVHNDNELAMHYYLKGRLEQNKACFYSSIEYFKKSNDKFLIRLPLLELQKMGENQKLLELLLL
chain 2: not shown

The experiment covers variants of B1. The experiment is described as follows: thermal shift assay. Conditions: with partner chain of the complex shown; AimR + AimP; one of three independent experiments.
For chain 1 D360A, the screen value was 44.4 °C.
Regarding chain 1 N202A, the screen value turned out to be 50.9 °C.
